{
  "source": "paper PMC8503651",
  "about": "“The Stress-Active Cell Division Protein ZapE Alters FtsZ Filament Architecture to Facilitate Division in Escherichia coli” (Frontiers in Microbiology, 2021)",
  "molecules": {"B1": {"name": "FtsZ (native) (natural protein, Escherichia coli, UniProt P0A9A6 1-383, looked up)", "chain": "MFEPMELTNDAVIKVIGVGGGGGNAVEHMVRERIEGVEFFAVNTDAQALRKTAVGQTIQIGSGITKGLGAGANPEVGRNAADEDRDALRAALEGADMVFIAAGMGGGTGTGAAPVVAEVAKDLGILTVAVVTKPFNFEGKKRMAFAEQGITELSKHVDSLITIPNDKLLKVLGRGISLLDAFGAANDVLKGAVQGIAELITRPGLMNVDFADVRTVMSEMGYAMMGSGVASGEDRAEEAAEMAISSPLLEDIDLSGARGVLVNITAGFDLRLDEFETVGNTIRAFASDNATVVIGTSLDPDMNDELRVTVVATGIGMDKRPEITLVTNKQVQQPVMDRYQQHGMAPLTQEQKPVAKVVNDNAPQTAKEPDYLDIPAFLRKQAD", "notes": "FtsZ, tubulin-like GTPase and cell division protein of Escherichia coli; native (no tag named); Assembles into polymers with GTP; also called Native FtsZ; wild type FtsZ; source: E. coli BL21 (λde3), purified as described (Camberg et al., 2009)"}},
  "key": {"[1]": {"molecular_target": "ZapE (N-terminal six histidine fusion protein) (Escherichia coli) (UniProt P64612)", "assay": "co-sedimentation; phospholipid recruitment: Gfp-FtsZ (3 μM) with GTP (4 mM) added to ZapE (1 μM) pre-assembled with SUVs (500 μg ml^-1) and ATP (4 mM); 50 mM HEPES pH 7.5, 150 mM KCl, 20 mM MgCl2; 21,000 × g for 15 min; percent in the pellet by densitometry; 6% of Gfp-FtsZ in the pellet without …"}, "[2]": {"molecular_target": "Histidine-tagged Gfp-FtsZ (Escherichia coli)", "assay": "filter retention (ultrafiltration, 100 kDa filter); ZapE or ZapE(K84A) (5 μM) with Gfp-FtsZ (10 μM) and ATP (4 mM), without GTP; 50 mM MES pH 6.5, 100 mM KCl, 10 mM MgCl2, 23°C, 10 min; filtrate and retentate by SDS-PAGE and densitometry; ZapE alone retained 33.4%, ZapE(K84A) alone 50.3%"}, "FtsZ (native) [3]": {"molecular_target": "B1", "assay": "cell-based or functional assay"}, "[4]": {"substrate": "Nc1ncnc2c1ncn2[C@@H]1O[C@H](COP(=O)(O)OP(=O)(O)OP(=O)(O)O)[C@@H](O)[C@H]1O", "assay": "phosphate release (Biomol Green), Michaelis-Menten fit", "assay_type": "biochemical, Escherichia coli", "conditions": "12 μM ZapE, ATP 0 to 5 mM, 50 mM HEPES pH 7.5, 150 mM KCl, 20 mM MgCl2, 23°C"}, "FtsZ (native) [5]": {"molecular_target": "B1", "assay": "co-sedimentation; FtsZ (6 μM) with GTP (2 mM) or without GTP, with or without ZapE or ZapE(K84A) (8 μM), with or without ATP or ATPγS (4 mM); 50 mM HEPES pH 7.5, 150 mM KCl, 20 mM MgCl2, 23°C, 10 min; 250,000 × g for 20 min; supernatants and pellets by SDS-PAGE and Coomassie", "conditions": "both partners purified"}, "[6]": {"molecular_target": "the molecule itself", "assay": "co-sedimentation; FtsZ (6 μM) with GTP (2 mM) or without GTP, with or without ZapE or ZapE(K84A) (8 μM), with or without ATP or ATPγS (4 mM); 50 mM HEPES pH 7.5, 150 mM KCl, 20 mM MgCl2, 23°C, 10 min; 250,000 × g for 20 min; supernatants and pellets by SDS-PAGE and Coomassie"}},
  "data": [
    {"molecule": "Histidine-tagged Gfp-FtsZ", "values": [
      {"measurement": "percent of total Gfp-FtsZ in the phospholipid pellet", "setting": "[1]", "value": 21.6, "unit": "%"}
    ]},
    {"molecule": "ZapE (N-terminal six histidine fusion protein) (enzyme, Escherichia coli, UniProt P64612 1-375, looked up) MQSVTPTSQYLKALNEGSHQPDDVQKEAVSRLEIIYQELINSTPPAPRTSGLMARVGKLWGKREDTKHTPVRGLYMWGGVGRGKTWLMDLFYQSLPGERKQRLHFHRFMLRVHEELTALQGQTDPLEIIADRFKAETDVLCFDEFFVSDITDAMLLGGLMKALFARGITLVATSNIPPDELYRNGLQRARFLPAIDAIKQHCDVMNVDAGVDYRLRTLTQAHLWLSPLHDETRAQMDKLWLALAGGKRENSPTLEINHRPLATMGVENQTLAVSFTTLCVDARSQHDYIALSRLFHTVMLFDVPVMTRLMESEARRFIALVDEFYERHVKLVVSAEVPLYEIYQGDRLKFEFQRCLSRLQEMQSEEYLKREHLAG", "values": [
      {"measurement": "percent of total ZapE retained on the filter", "setting": "[2]", "value": 63.4, "unit": "%"},
      {"measurement": "maximum 90° light scatter of FtsZ (8 μM) after addition of GTP (1.5 mM), ZapE 0 to 8 μM with ATP (4 mM)", "setting": "FtsZ (native) [3]", "value": "> 2", "unit": "fold"}
    ]},
    {"molecule": "ZapE (H6-ZapE) (Escherichia coli K-12) (protein, full-length, N-terminal 6xHis tag kept, pET-28a, expressed in E. coli BL21 (λde3); calculated mass 44,583 Da; predominantly monomer) MQSVTPTSQYLKALNEGSHQPDDVQKEAVSRLEIIYQELINSTPPAPRTSGLMARVGKLWGKREDTKHTPVRGLYMWGGVGRGKTWLMDLFYQSLPGERKQRLHFHRFMLRVHEELTALQGQTDPLEIIADRFKAETDVLCFDEFFVSDITDAMLLGGLMKALFARGITLVATSNIPPDELYRNGLQRARFLPAIDAIKQHCDVMNVDAGVDYRLRTLTQAHLWLSPLHDETRAQMDKLWLALAGGKRENSPTLEINHRPLATMGVENQTLAVSFTTLCVDARSQHDYIALSRLFHTVMLFDVPVMTRLMESEARRFIALVDEFYERHVKLVVSAEVPLYEIYQGDRLKFEFQRCLSRLQEMQSEEYLKREHLAG", "values": [
      {"measurement": "Km", "setting": "[4]", "value": "1700 ± 360", "unit": "µM"}
    ]},
    {"molecule": "ZapE(K84A) (N-terminal histidine fusion protein) (enzyme, Escherichia coli, UniProt P64612 1-375, looked up, ZapE of Escherichia coli with the Walker A substitution K84A (defective for ATP hydrolysis); pET-28a, site-directed mutagenesis; also called H6-ZapE(K84A); His6-zapE(K84A); source: E. coli BL21 (λde3), purified (cobalt column, sephadex G25); not shown: His6, N-terminal, kept) MQSVTPTSQYLKALNEGSHQPDDVQKEAVSRLEIIYQELINSTPPAPRTSGLMARVGKLWGKREDTKHTPVRGLYMWGGVGRGATWLMDLFYQSLPGERKQRLHFHRFMLRVHEELTALQGQTDPLEIIADRFKAETDVLCFDEFFVSDITDAMLLGGLMKALFARGITLVATSNIPPDELYRNGLQRARFLPAIDAIKQHCDVMNVDAGVDYRLRTLTQAHLWLSPLHDETRAQMDKLWLALAGGKRENSPTLEINHRPLATMGVENQTLAVSFTTLCVDARSQHDYIALSRLFHTVMLFDVPVMTRLMESEARRFIALVDEFYERHVKLVVSAEVPLYEIYQGDRLKFEFQRCLSRLQEMQSEEYLKREHLAG", "values": [
      {"measurement": "binding result", "setting": "FtsZ (native) [5]", "value": "binds"},
      {"measurement": "percent of ZapE(K84A) retained on the filter", "setting": "[2]", "value": 80.2, "unit": "%"}
    ]},
    {"molecule": "B1", "values": [
      {"measurement": "binding result", "setting": "[6]", "value": "binds"}
    ]}
  ]
}
